tested on: HEK293FT cells transfected with TF library; assay: Screening of TF condensates based on fluorescent puncta; type: cell-based; details: Figure 1B numerical data; TF library screen, one value per transcriptional factor
Protocol: TF plasmids were automatically added to black-walled 384-well plates at 80 ng per well to reach a final concentration of 1.6 μg/ml. Polyethylenimine (PEI, Sigma) was then added to the plasmid-loaded plates at 240 ng per well (4.8 μg/ml). Subsequently, HEK293FT cells were seeded into the plate at 2000 cells per well. After 60 h, cells were cultured in medium with or without glucose for 12 h, and then fixed with 4% paraformaldehyde (PFA) at room temperature for 30 min. After three washes with PBS, fixed cells were permeabilized with 0.05% Triton X-100 for 15 min. Thereafter, cells were blocked with 5% BSA for 1 h, and then incubated overnight with anti-Flag (Sigma F3165, 1:200) and anti-GAL4 (Abbkine ABP57232, 1:200) primary antibodies at 4 °C. The cells were then gently washed with PBS, followed by being incubated with Alexa Fluor Plus 488 goat anti-mouse IgG secondary antibody (Thermo A32723, 1:400) or Alexa Fluor Plus 488 goat anti-rabbit IgG secondary antibody (Thermo A32731, 1:400) for 1 h. The plates were kept at 4 °C in the dark before being analyzed using an Opera System (Perkin Elmer). Fifty random fields per well were scanned and analyzed using the Columbus Plus Image Data Storage and Analysis System (Perkin Elmer).

| Molecule | Z score of condensed fraction |
| --- | --- |
| DBX2 (protein, UniProt Q6ZNG2 1-339, looked up) Homeobox protein DBX2: MLPSAVAAHAGAYWDVVASSALLNLPAAPGFGNLGKSFLIENLLRVGGAPTPRLQPPAPHDPATALATAGAQLRPLPASPVPLKLCPAAEQVSPAGAPYGTRWAFQVLSPSADSARLPGRAPGDRDCTFQPSAPAPSKPFLLSTPPFYSACCGGSCRRPASSTAFPREESMLPLLTQDSNSKARRGILRRAVFSEDQRKALEKMFQKQKYISKTDRKKLAINLGLKESQVKIWFQNRRMKWRNSKEKEVLSNRCIQEVGLQEDPLSRSALGFPSPCPSIWDVPQQHSSPRWRENSPEPSERLIQESSGAPPPEANSLQGALYLCSEEEAGSKGVLTGAV | 2.182 |
| DDIT3 (protein, UniProt P35638 1-169, looked up) DNA damage-inducible …: MAAESLPFSFGTLSSWELEAWYEDLQEVLSSDENGGTYVSPPGNEEEESKIFTTLDPASLAWLTEEEPEPAEVTSTSQSPHSPDSSQSSLAQEEEEEDQGRTRKRKQSGHSPARAGKQRMKEKEQENERKVAQLAEENERLKQEIERLTREVEATRRALIDRMVNLHQA | -1.245 |
| DDX17 (protein, UniProt Q92841 1-729, looked up) Probable ATP-dependent RNA …: MPTGFVAPILCVLLPSPTREAATVASATGDSASERESAAPAAAPTAEAPPPSVVTRPEPQALPSPAIRAPLPDLYPFGTMRGGGFGDRDRDRDRGGFGARGGGGLPPKKFGNPGERLRKKKWDLSELPKFEKNFYVEHPEVARLTPYEVDELRRKKEITVRGGDVCPKPVFAFHHANFPQYVMDVLMDQHFTEPTPIQCQGFPLALSGRDMVGIAQTGSGKTLAYLLPAIVHINHQPYLERGDGPICLVLAPTRELAQQVQQVADDYGKCSRLKSTCIYGGAPKGPQIRDLERGVEICIATPGRLIDFLESGKTNLRRCTYLVLDEADRMLDMGFEPQIRKIVDQIRPDRQTLMWSATWPKEVRQLAEDFLRDYTQINVGNLELSANHNILQIVDVCMESEKDHKLIQLMEEIMAEKENKTIIFVETKRRCDDLTRRMRRDGWPAMCIHGDKSQPERDWVLNEFRSGKAPILIATDVASRGLDVEDVKFVINYDYPNSSEDYVHRIGRTARSTNKGTAYTFFTPGNLKQARELIKVLEEANQAINPKLMQLVDHRGGGGGGGGRSRYRTTSSANNPNLMYQDECDRRLRGVKDGGRRDSASYRDRSETDRAGYANGSGYGSPNSAFGAQAGQYTYGQGTYGAAAYGTSSYTAQEYGAGTYGASSTTSTGRSSQSSSQQFSGIGRSGQQPQPLMSQQFAQPPGATNMIGYMGQTAYQYPPPPPPPPPSRK | 0.6597 |
| DDX20 (protein, UniProt Q9UHI6 1-824, looked up) Probable ATP-dependent RNA …: MAAAFEASGALAAVATAMPAEHVAVQVPAPEPTPGPVRILRTAQDLSSPRTRTGDVLLAEPADFESLLLSRPVLEGLRAAGFERPSPVQLKAIPLGRCGLDLIVQAKSGTGKTCVFSTIALDSLVLENLSTQILILAPTREIAVQIHSVITAIGIKMEGLECHVFIGGTPLSQDKTRLKKCHIAVGSPGRIKQLIELDYLNPGSIRLFILDEADKLLEEGSFQEQINWIYSSLPASKQMLAVSATYPEFLANALTKYMRDPTFVRLNSSDPSLIGLKQYYKVVNSYPLAHKVFEEKTQHLQELFSRIPFNQALVFSNLHSRAQHLADILSSKGFPAECISGNMNQNQRLDAMAKLKHFHCRVLISTDLTSRGIDAEKVNLVVNLDVPLDWETYMHRIGRAGRFGTLGLTVTYCCRGEEENMMMRIAQKCNINLLPLPDPIPSGLMEECVDWDVEVKAAVHTYGIASVPNQPLKKQIQKIERTLQIQKAHGDHMASSRNNSVSGLSVKSKNNTKQKLPVKSHSECGIIEKATSPKELGCDRQSEEQMKNSVQTPVENSTNSQHQVKEALPVSLPQIPCLSSFKIHQPYTLTFAELVEDYEHYIKEGLEKPVEIIRHYTGPGDQTVNPQNGFVRNKVIEQRVPVLASSSQSGDSESDSDSYSSRTSSQSKGNKSYLEGSSDNQLKDSESTPVDDRISLEQPPNGSDTPNPEKYQESPGIQMKTRLKEGASQRAKQSRRNLPRRSSFRLQTEAQEDDWYDCHREIRLSFSDTYQDYEEYWRAYYRAWQEYYAAASHSYYWNAQRHPSWMAAYHMNTIYLQEMMHSNQ | 1.184 |
| DLX2 (protein, UniProt Q07687 1-328, looked up) Homeobox protein DLX-2: MTGVFDSLVADMHSTQIAASSTYHQHQQPPSGGGAGPGGNSSSSSSLHKPQESPTLPVSTATDSSYYTNQQHPAGGGGGGGSPYAHMGSYQYQASGLNNVPYSAKSSYDLGYTAAYTSYAPYGTSSSPANNEPEKEDLEPEIRIVNGKPKKVRKPRTIYSSFQLAALQRRFQKTQYLALPERAELAASLGLTQTQVKIWFQNRRSKFKKMWKSGEIPSEQHPGASASPPCASPPVSAPASWDFGVPQRMAGGGGPGSGGSGAGSSGSSPSSAASAFLGNYPWYHQTSGSASHLQATAPLLHPTQTPQPHHHHHHHGGGGAPVSAGTIF | 0.04096 |
| DLX4 (protein, UniProt Q92988 1-240, looked up) Homeobox protein DLX-4: MTSLPCPLPGRDASKAVFPDLAPVPSVAAAYPLGLSPTTAASPNLSYSRPYGHLLSYPYTEPANPGDSYLSCQQPAALSQPLCGPAEHPQELEADSEKPRLSPEPSERRPQAPAKKLRKPRTIYSSLQLQHLNQRFQHTQYLALPERAQLAAQLGLTQTQVKIWFQNKRSKYKKLLKQNSGGQEGDFPGRTFSVSPCSPPLPSLWDLPKAGTLPTSGYGNSFGAWYQHHSSDVLASPQMM | -0.356 |
| ACTL6B (protein, UniProt Q99MR0 1-426, looked up) Actin-like protein 6B: MSGGVYGGDEVGALVFDIGSFSVRAGYAGEDCPKADFPTTVGLLAAEEGGGLELEGEKEKKGKIFHIDTNALHVPRDGAEVMSPLKNGMIEDWECFRAILDHTYSKHVKSEPNLHPVLMSEAPWNTRAKREKLTELMFEQYNIPAFFLCKTAVLTAFANGRSTGLVLDSGATHTTAIPVHDGYVLQQGIVKSPLAGDFISMQCRELFQEMAIDIIPPYMIAAKEPVREGAPPNWKKKEKLPQVSKSWHNYMCNEVIQDFQASVLQVSDSPYDEQVAAQMPTVHYEMPNGYNTDYGAERLRIPEGLFDPSNVKGLSGNTMLGVGHVVTTSIGMCDIDIRPGLYGSVIVTGGNTLLQGFTDRLNRELSQKTPPSMRLKLIASNSTMERKFSPWIGGSILASLGTFQQMWISKQEYEEGGKQCVERKCP | 0.5544 |
| DMP-1 (protein, UniProt Q9Y222 1-760, looked up) Cyclin-D-binding Myb-like …: MSTVEEDSDTVTVETVNSVTLTQDTEGNLILHCPQNEADEIDSEDSIEPPHKRLCLSSEDDQSIDDSTPCISVVALPLSENDQSFEVTMTATTEVADDEVTEGTVTQIQILQNEQLDEISPLGNEEVSAVSQAWFTTKEDKDSLTNKGHKWKQGMWSKEEIDILMNNIERYLKARGIKDATEIIFEMSKDERKDFYRTIAWGLNRPLFAVYRRVLRMYDDRNHVGKYTPEEIEKLKELRIKHGNDWATIGAALGRSASSVKDRCRLMKDTCNTGKWTEEEEKRLAEVVHELTSTEPGDIVTQGVSWAAVAERVGTRSEKQCRSKWLNYLNWKQSGGTEWTKEDEINLILRIAELDVADENDINWDLLAEGWSSVRSPQWLRSKWWTIKRQIANHKDVSFPVLIKGLKQLHENQKNNPTLLENKSGSGVPNSNTNSSVQHVQIRVARLEDNTAISSSPMAALQIPVQITHVSSADSPATVDSETITLNSGTLQTFEILPSFHLQPTGTPGTYLLQTSSSQGLPLTLTASPTVTLTAAAPASPEQIIVHALSPEHLLNTSDNVTVQCHTPRVIIQTVATEDITSSISQAELTVDSDIQSSDFPEPPDALEADTFPDEIHHPKMTVEPSFNDAHVSKFSDQNSTELMNSVMVRTEEEISDTDLKQEESPSDLASAYVTEGLESPTIEEQVDQTIDDETILIVPSPHGFIQASDVIDTESVLPLTTLTDPILQHHQEESNIIGSSLGSPVSEDSKDVEDLVNCH | 2.192 |
| DMRTA1 (protein, UniProt Q5VZB9 1-504, looked up) Doublesex- and mab-3-related …: MERSQCGSRDRGVSGRPHLAPGLVVAAPPPPSPALPVPSGMQVPPAFLRPPSLFLRAAAAAAAAAAATSGSGGCPPAPGLESGVGAVGCGYPRTPKCARCRNHGVVSALKGHKRFCRWRDCACAKCTLIAERQRVMAAQVALRRQQAQEESEARGLQRLLCSGLSWPPGGRASGGGGRAENPQSTGGPAAGAALGLGALRQASGSATPAFEVFQQDYPEEKQEQKESKCESCQNGQEELISKSHQLYLGSSSRSNGVIGKQSIGSSISEYSNKPDSILSPHPGEQSGGEESPRSLSSSDLESGNESEWVKDLTATKASLPTVSSRPRDPLDILTKIFPNYRRSRLEGILRFCKGDVVQAIEQVLNGKEHKPDNRNLANSEELENTAFQRASSFSLAGIGFGTLGNKSAFSPLQTTSASYGGDSSLYGVNPRVGISPLRLAYSSAGRGLSGFMSPYLTPGLVPTLPFRPALDYAFSGMIRDSSYLSSKDSITCGRLYFRPNQDNP | -0.1434 |
| DP-1 (protein, UniProt Q14186 1-410, looked up) Transcription factor Dp-1: MAKDAGLIEANGELKVFIDQNLSPGKGVVSLVAVHPSTVNPLGKQLLPKTFGQSNVNIAQQVVIGTPQRPAASNTLVVGSPHTPSTHFASQNQPSDSSPWSAGKRNRKGEKNGKGLRHFSMKVCEKVQRKGTTSYNEVADELVAEFSAADNHILPNESAYDQKNIRRRVYDALNVLMAMNIISKEKKEIKWIGLPTNSAQECQNLEVERQRRLERIKQKQSQLQELILQQIAFKNLVQRNRHAEQQASRPPPPNSVIHLPFIIVNTSKKTVIDCSISNDKFEYLFNFDNTFEIHDDIEVLKRMGMACGLESGSCSAEDLKMARSLVPKALEPYVTEMAQGTVGGVFITTAGSTSNGTRFSASDLTNGADGMLATSSNGSQYSGSRVETPVSYVGEDDEEDDDFNENDEDD | 0.7932 |
| DPRX (protein, UniProt A6NFQ7 1-191, looked up) Divergent paired-related …: MPGSEDLRKGKDQMHSHRKRTMFTKKQLEDLNILFNENPYPNPSLQKEMASKIDIHPTVLQVWFKNHRAKLKKAKCKHIHQKQETPQPPIPEGGVSTSVGLRNADTLPRLPNAAHPIGLVYTGHRVPSFQLILYPNLKVPANDFIGHRIVHFGCCRDPNIYCLYPILESQVCAPSFHSGSPACSSNQSRER | -0.8656 |

From publication PMC11574045, “A cofactor-induced repressive type of transcription factor condensation can be induced by synthetic peptides to suppress tumorigenesis” (The EMBO Journal, 2024)
